Values quoted from earlier work, collected in publication PMC7019049.
pKd: −log10 of the molar value.

What was measured:
[1] = biological target: MIG6 peptide (Homo sapiens) (UniProt Q9UJM3)
[2] = biological target: pepJIP1 (Homo sapiens) (UniProt Q9UQF2)
Sequence of UniProt Q9UQF2 (Q9UQF2 whole entry): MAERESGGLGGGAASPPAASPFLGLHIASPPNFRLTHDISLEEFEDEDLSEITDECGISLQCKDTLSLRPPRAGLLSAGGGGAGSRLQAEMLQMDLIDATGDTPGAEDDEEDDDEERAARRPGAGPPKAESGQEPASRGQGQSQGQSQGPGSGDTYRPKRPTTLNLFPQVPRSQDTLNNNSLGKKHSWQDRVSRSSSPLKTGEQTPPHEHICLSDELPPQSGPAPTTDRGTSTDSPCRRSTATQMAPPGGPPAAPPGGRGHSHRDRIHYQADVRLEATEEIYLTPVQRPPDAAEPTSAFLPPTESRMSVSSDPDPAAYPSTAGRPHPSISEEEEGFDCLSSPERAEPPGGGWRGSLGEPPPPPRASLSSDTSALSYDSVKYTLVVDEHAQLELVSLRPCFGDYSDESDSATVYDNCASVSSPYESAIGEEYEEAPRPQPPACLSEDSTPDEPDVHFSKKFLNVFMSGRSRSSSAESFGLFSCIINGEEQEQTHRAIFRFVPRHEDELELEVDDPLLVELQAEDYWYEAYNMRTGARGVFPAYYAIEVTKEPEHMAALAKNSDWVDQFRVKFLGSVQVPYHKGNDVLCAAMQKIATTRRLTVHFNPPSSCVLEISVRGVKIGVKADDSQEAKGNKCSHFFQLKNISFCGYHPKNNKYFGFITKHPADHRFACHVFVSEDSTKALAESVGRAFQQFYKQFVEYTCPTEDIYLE

Sequence of UniProt Q9UJM3 (Q9UJM3 2-462): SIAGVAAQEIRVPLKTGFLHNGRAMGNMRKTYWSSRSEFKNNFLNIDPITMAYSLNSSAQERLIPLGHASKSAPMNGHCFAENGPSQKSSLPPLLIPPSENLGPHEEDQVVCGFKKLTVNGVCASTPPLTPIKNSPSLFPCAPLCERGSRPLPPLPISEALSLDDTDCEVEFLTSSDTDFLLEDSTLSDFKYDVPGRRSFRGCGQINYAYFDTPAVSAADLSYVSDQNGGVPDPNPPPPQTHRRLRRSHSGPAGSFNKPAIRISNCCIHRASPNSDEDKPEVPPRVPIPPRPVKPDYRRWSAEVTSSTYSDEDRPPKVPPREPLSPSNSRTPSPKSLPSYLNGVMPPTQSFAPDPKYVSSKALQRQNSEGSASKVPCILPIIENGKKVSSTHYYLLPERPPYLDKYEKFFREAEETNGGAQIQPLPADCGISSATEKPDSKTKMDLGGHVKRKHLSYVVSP

| pKd [1] | pKd [2] | Substance |
| --- | --- | --- |
| 4.89 |  | EGFR kinase domain (from UniProt P00533) |
|  | 6.38 | MAPK8 (JNK1) (from UniProt P45983) |
